Measurements from paper PMC5261807 (2017).
Non-standard residues stand in square brackets, D forms with d. Primed or numbered codes have the meaning given here. No end group written: not given here. Me2a″ = asymmetric dimethylarginine (Rme2a); Me2s″ = symmetric dimethylarginine (Rme2s); Arg(Me2a) = CN(C)C(=N)NCCC[C@H](N)C(=O)O; Lys(Me3) = C[N+](C)(C)CCCC[C@H](N)C(=O)O; Arg(Me2s) = CN=C(NC)NCCC[C@H](N)C(=O)O; pT = C[C@@H](OP(=O)(O)O)[C@H](N)C(=O)O; Me2a = asymmetric dimethyl (on Arg); Lys(Me2) = CN(C)CCCC[C@H](N)C(=O)O; Me2s = symmetric dimethyl (on Arg); pS = N[C@@H](COP(=O)(O)O)C(=O)O; Lys(Me) = CNCCCC[C@H](N)C(=O)O; Me3″ = trimethyl lysine (Kme3); Me3 = trimethyl (on Lys); Me2 = dimethyl (on Lys)

T1: Bdf1 bromodomain 2 (GST-tagged, WT) (Saccharomyces cerevisiae (strain ATCC …, UniProt P35817))
T1 chain: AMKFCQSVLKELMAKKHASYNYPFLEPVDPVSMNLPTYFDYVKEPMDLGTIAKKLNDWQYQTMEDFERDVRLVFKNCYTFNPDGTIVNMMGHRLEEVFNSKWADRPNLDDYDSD

T2: Bdf1 bromodomain 1 (GST-tagged, WT) (Saccharomyces cerevisiae (strain ATCC …, UniProt P35817))
T2 chain: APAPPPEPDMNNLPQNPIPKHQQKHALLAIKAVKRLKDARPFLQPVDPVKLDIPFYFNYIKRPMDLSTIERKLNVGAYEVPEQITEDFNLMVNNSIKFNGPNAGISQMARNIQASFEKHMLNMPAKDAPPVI

B1: H3 1-19 (peptide)
chain: AR(Me2a)TK(Me)QTAR(Me2s)K(Me3)STGGKAPRKQ
B2: H3 1-19 (peptide)
chain: ARTKQTARKSTGGKAPRKQ
modifications: A Rme2s T Kme3 Q T A Rme2s Kme1 S T G G K A P R K Q
B3: H3 1-19 (peptide)
chain: ARTKQTARKSTGGKAPRKQ
modifications: A Rme2s T Kme2 Q T A Rme2a Kme2 S T G G K A P R K Q
B4: H2a 1-19 (peptide)
chain: [pS]GRGKQGGKARAKAKSRSS
B5: H3 1-19 (peptide)
chain: A[Arg(Me2s)]T[Lys(Me2)]QTA[Arg(Me2s)][Lys(Me2)]STGGKAPRKQ
B6: H3 1-19 (peptide)
chain: A[Arg(Me2a)][pT]K(Ac)QTARKSTGGKAPRKQ
B7: H3 1-19 (peptide)
chain: ARTK(Ac)QTAR(Me2a)K(Me2)STGGKAPRKQ
B8: H3 1-19 (peptide)
chain: ARTKQTARKSTGGKAPRKQ
modifications: A Rme2s T Kac Q T A Rme2a Kac S T G G K A P R K Q
B9: H3 1-19 (peptide)
chain: ARTKQTARKSTGGKAPRKQ
modifications: A R T K Q T A R Kme3 S T G G K A P R K Q
B10: H3 1-19 (peptide)
chain: ARTK(Ac)QTAR(Me2s″)K(Ac)STGGKAPRKQ
B11: H3 1-19 (peptide)
chain: ARTKQTARKSTGGKAPRKQ
modifications: A Rme2a T Kac Q T A Rme2a Kme2 S T G G K A P R K Q
B12: H4 1-19 (peptide)
chain: SGRGKGGKGLGKGGAKRHR
modifications: S G R G K G G K G L G K G G A Kac R H R
B13: H3 16-35 (peptide)
chain: PRKQLATKAAR(Me2a″)K(Ac)[pS]APATGG
B14: H3 1-19 (peptide)
chain: ARTKQTARKSTGGKAPRKQ
modifications: A R T Kme2 Q T A Rme2a Kac S T G G K A P R K Q
B15: H3 26-45 (peptide)
chain: RKSAPATGGVKKPHRYRPG
modifications: histone peptides carry modifications given inline in the sequence and in columns 4-7 (Kac, Kme1/2/3, Rme2a/s, Cit, pS/pT); N-terminus free or acetylated
B16: H3 1-19 (peptide)
chain: ARTKQTARKSTGGKAPRKQ
modifications: A Rme2a T Kme1 Q T A Rme2a Kme2 S T G G K A P R K Q
B17: H3 1-19 (peptide)
chain: A[Arg(Me2a)]T[Lys(Me2)]QTA[Arg(Me2a)][Lys(Me3)]STGGKAPRKQ
B18: H2a 1-19 (peptide)
chain: [pS]GRGK(Ac)QGGK(Ac)ARAKAKSRSS
B19: H3 1-19 (peptide)
chain: ARTKQTARKSTGGKAPRKQ
modifications: A R T K Q T A R K pS pT G G K A P R K Q
B20: H3 16-35 (peptide)
chain: PRKQLATKAAR[Lys(Me3)]SAPATGG
B21: H3 1-19 (peptide)
chain: ARTK(Me)QTARKSTGGKAPRKQ
B22: H3 1-19 (peptide)
chain: ARTKQTARKSTGGKAPRKQ
modifications: A R T K Q T A R Kac S pT G G K A P R K Q
B23: H3 1-19 (peptide)
chain: ARTKQTARKSTGGKAPRKQ
modifications: A Rme2s T Kme2 Q T A R Kme1 S T G G K A P R K Q
B24: H3 1-19 (peptide)
chain: ARTKQTARKSTGGKAPRKQ
modifications: A Rme2s T Kme2 Q T A Rme2s K S T G G K A P R K Q
B25: H2a 1-19 (peptide)
chain: [pS]GRGKQGGK(Ac)ARAK(Ac)AKSRSS
B26: H3 1-19 (peptide)
chain: ARTKQTARKSTGGKAPRKQ
modifications: A Rme2s T Kme3 Q T A Rme2a Kac S T G G K A P R K Q
B27: H3 1-19 (peptide)
chain: ART[Lys(Me3)]QTA[Arg(Me2a)][Lys(Me2)]STGGKAPRKQ
B28: H3 1-19 (peptide)
chain: ARTKQTARKSTGGKAPRKQ
modifications: A R T Kme2 Q T A Rme2s Kme2 S T G G K A P R K Q
B29: H3 1-19 (peptide)
chain: ARTKQTARKSTGGKAPRKQ
modifications: A R T K Q T A R Kme2 S pT G G K A P R K Q
B30: H3 16-35 (peptide)
chain: PRKQLATKAA[Arg(Me2s)]KSAPATGG
B31: H3 1-19 (peptide)
chain: AR[pT]KQTARKSTGGKAPRKQ
B32: H3 1-19 (peptide)
chain: ARTKQTARKSTGGKAPRKQ
modifications: A R T Kme3 Q T A Rme2s Kme3 S T G G K A P R K Q
B33: H3 1-19 (peptide)
chain: ARTK(Me3)QTARKSTGGKAPRKQ
B34: H3 1-19 (peptide)
chain: A[Arg(Me2a)]TK(Me)QTARKSTGGKAPRKQ
B35: H2a 1-19 (peptide)
chain: [pS]GRGK(Ac)QGGK(Ac)ARAK(Ac)AKSRSS
B36: H2B 1-19 (peptide)
chain: PDPAK(Ac)SAPAPKK(Ac)GSK(Ac)KAVT
B37: H3 1-19 (peptide)
chain: ARTKQTARKSTGGKAPRKQ
modifications: A Rme2a T Kac Q T A Rme2s Kme1 S T G G K A P R K Q
B38: H3 1-19 (peptide)
chain: A[Arg(Me2a)]TK(Ac)QTARKSTGGKAPRKQ
B39: H3 16-35 (peptide)
chain: PRKQLATKAAR(Me2a″)K(Me3″)[pS]APATGG
B40: H3 1-19 (peptide)
chain: ARTKQTARKSTGGKAPRKQ
modifications: A R T Kme2 Q T A Rme2a Kme2 S T G G K A P R K Q
B41: H2a 1-19 (peptide)
chain: SGRGK(Ac)QGGKARAK(Ac)AKSRSS
B42: H3 1-19 (peptide)
chain: ARTKQTA[Arg(Me2a)]K(Ac)[pS]TGGKAPRKQ
B43: H3 1-19 (peptide)
chain: ARTKQTARKSTGGKAPRKQ
modifications: A Rme2a T Kme3 Q T A Rme2s Kme2 S T G G K A P R K Q
B44: H3 1-19 (peptide)
chain: AR(Me2s″)TK(Me)QTARK(Me)STGGKAPRKQ
B45: H3 1-19 (peptide)
chain: A[Arg(Me2a)]TK(Ac)QTA[Arg(Me2s)][Lys(Me2)]STGGKAPRKQ
B46: H3 1-19 (peptide)
chain: ARTKQTARKSTGGKAPRKQ
modifications: A R T K Q T A R Kme2 S T G G Kac A P R K Q
B47: H3 1-19 (peptide)
chain: A[Arg(Me2s)]T[Lys(Me)]QTA[Arg(Me2a)][Lys(Me)]STGGKAPRKQ
B48: H2B 1-19 (peptide)
chain: PDPAKSAPAPKKG[pS]KKAVT
B49: H3 1-19 (peptide)
chain: ARTKQTARKSTGGKAPRKQ
modifications: A Rme2s T Kme2 Q T A Rme2a Kme3 S T G G K A P R K Q
B50: H2B 1-19 (peptide)
chain: PDPAK(Ac)SAPAPKKGSK(Ac)KAVT
B51: H3 16-35 (peptide)
chain: PRKQLATKAA[Arg(Me2a)]KSAPATGG

Molecular target: T1, Bdf1 bromodomain 2 (GST-tagged, WT)
Assay: histone peptide array probed with recombinant GST-bromodomain, signal normalised to myc peptide control

Binder | binding score
B1 | 0
B2 | 0.00187
B3 | 0
B4 | 0.00502
B5 | 0
B6 | 0.0394
B7 | 0.00915
B8 | 0.0894
B9 | 0.00305
B10 | 0.00915
B11 | 0.0105
B12 | 0
B13 | 0
B14 | 0.00915
B15 | 0.00305
B16 | 0.000885
B17 | 0
B18 | 0.162
B19 | 0
B20 | 0
B21 | 0.00305
B22 | 0
B23 | 0.00895
B24 | 0.00226
B25 | 0.186
B26 | 0.00305

Binder | binding score
B27 | 0
B28 | 0.00325
B29 | 0
B30 | 0
B31 | 0.0062
B32 | 0
B33 | 0.00148
B34 | 0
B35 | 0.388
B36 | 0.329
B37 | 0
B38 | 0.00915
B39 | 0
B40 | 0.000885
B41 | 0.127
B42 | 0.00384
B43 | 0
B44 | 0.0105
B45 | 0.00482
B46 | 0.104
B47 | 0
B48 | 0
B49 | 0.00797
B50 | 0
B51 | 0

Molecular target: T2, Bdf1 bromodomain 1 (GST-tagged, WT)
Assay: as above

Binder | binding score
B1 | 0.0113
B2 | 0.00161
B3 | 0
B4 | 0
B5 | 0
B6 | 0.0346
B7 | 0.00179
B8 | 0.0545
B9 | 0
B10 | 0.0672
B11 | 0.00143
B12 | 0
B13 | 0.00143
B14 | 0.0228
B15 | 0.00968
B16 | 0.00251
B17 | 0
B18 | 0.00663
B19 | 0.00681
B20 | 0
B21 | 0
B22 | 0
B23 | 0
B24 | 0
B25 | 0.0477
B26 | 0.0136

Binder | binding score
B27 | 0.000538
B28 | 0
B29 | 0
B30 | 0
B31 | 0
B32 | 0
B33 | 0
B34 | 0
B35 | 0.0949
B36 | 0
B37 | 0
B38 | 0.00897
B39 | 0
B40 | 0
B41 | 0.0151
B42 | 0.00126
B43 | 0.00269
B44 | 0
B45 | 0.0188
B46 | 0.0411
B47 | 0.00126
B48 | 0.00699
B49 | 0
B50 | 0.00143
B51 | 0
